# B1: GLP-1(7-37)-IP2-RR-GLP2 (peptide)
# chain: HAEGTFTSDVSSYLEGQAAKEFIAWLVKGRGRRDFPEEVAIAEELGRRHADGSFSDEMSTILDNLATRDFINWLIQTKITDKK
# notes: 83 aa fusion peptide
# Tested on: type II diabetic mice (C57BUKs-Lepr db/db)
# Test: In vivo bioactivity in type II diabetic mice
# Parameters: species or system mouse
# Conditions: 5 μg peptide s.c. twice a day, Day 2, 4, 7, 10, overnight fasted
# Experimental: 11-week-old type II diabetic mice (C57BUKs-Lepr^db/db, Harlan) were treated with 5 μg peptide by subcutaneous injection twice a day at 9 a.m. and 5 p.m. (n=5 per group).
# Blood glucose was measured before (day 0) and after treatment with GLP^CM peptides (Day 2, 4, 7, 10) at 10 a.m. after an overnight fastening period. Data were presented in relation to blood glucose levels measured at day 0.
# Best results were obtained with recombinant SEQ ID No.:6 (CM1) and synthetic SEQ ID No.:8 (CM3). In FIG. 5 (y-axis) the relative effect of the treatment is shown. Blood glucose at day=0 was set to 1. Untreated animals undergo continuous increase in blood glucose level over time, whereas animals treated with inventive peptides display grosso modo a continuous decrease of the blood glucose level over time.
molecule,measurement,value
B1,anti-hyperglycemia effect (blood glucose in relation to day 0),anti-hyperglycemia effect
